Experimental data reported in paper PMC9482650, “Quantitative fragmentomics allow affinity mapping of interactomes” (Nature Communications, 2022).

T1: PDZD4, Q76G19
T1 sequence (Q76G19 125-224, limits assumed, looked up): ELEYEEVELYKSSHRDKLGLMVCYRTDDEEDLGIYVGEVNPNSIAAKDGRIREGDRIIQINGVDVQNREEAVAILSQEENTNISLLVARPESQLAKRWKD

T2: CNKSR1, Q969H4
T2 sequence (Q969H4 191-295, limits assumed, looked up): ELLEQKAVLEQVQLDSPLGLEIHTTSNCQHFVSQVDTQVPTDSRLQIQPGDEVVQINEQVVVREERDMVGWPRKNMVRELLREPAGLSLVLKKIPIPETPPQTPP

T3: MPDZ_6, O75970
T3 sequence (O75970 1003-1099, limits assumed, looked up): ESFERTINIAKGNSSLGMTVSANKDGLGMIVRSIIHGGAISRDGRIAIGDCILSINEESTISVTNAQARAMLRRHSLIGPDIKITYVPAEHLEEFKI

T4: PDZRN3_2, Q9UPQ7
T4 sequence (Q9UPQ7 414-513, limits assumed, looked up): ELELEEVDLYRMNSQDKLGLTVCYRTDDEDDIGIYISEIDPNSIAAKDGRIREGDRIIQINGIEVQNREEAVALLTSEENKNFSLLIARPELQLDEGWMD

T5: INTU, Q9ULD6
T5 sequence (Q9ULD6 180-273, limits assumed, looked up): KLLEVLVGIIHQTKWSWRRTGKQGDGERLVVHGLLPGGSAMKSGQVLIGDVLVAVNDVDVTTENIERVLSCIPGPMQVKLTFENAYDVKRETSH

T6: SHANK3, Q9BYB0
T6 sequence (Q9BYB0 641-750, limits assumed, looked up): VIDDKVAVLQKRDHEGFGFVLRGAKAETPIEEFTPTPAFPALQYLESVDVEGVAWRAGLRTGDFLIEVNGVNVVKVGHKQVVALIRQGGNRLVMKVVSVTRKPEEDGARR

T7: USH1C_3, Q9Y6N9
T7 sequence (Q9Y6N9 447-547, limits assumed, looked up): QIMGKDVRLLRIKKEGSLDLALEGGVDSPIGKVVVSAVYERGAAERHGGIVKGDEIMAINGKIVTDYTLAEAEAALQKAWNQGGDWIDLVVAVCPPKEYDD

T8: TJP3_1, O95049
T8 sequence (O95049 6-103, limits assumed, looked up): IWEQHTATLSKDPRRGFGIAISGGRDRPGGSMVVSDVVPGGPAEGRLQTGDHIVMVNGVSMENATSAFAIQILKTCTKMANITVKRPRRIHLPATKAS

T9: NHERF1_2, O14745
T9 sequence (O14745 149-244, limits assumed, looked up): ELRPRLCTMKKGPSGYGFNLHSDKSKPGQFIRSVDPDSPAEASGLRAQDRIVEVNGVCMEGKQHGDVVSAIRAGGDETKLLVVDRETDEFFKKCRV

T10: TJP3_2, O95049
T10 sequence (O95049 190-282, limits assumed, looked up): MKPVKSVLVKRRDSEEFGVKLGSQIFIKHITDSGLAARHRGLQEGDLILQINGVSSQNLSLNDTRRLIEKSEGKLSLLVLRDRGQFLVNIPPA

T11: PDZD11, Q5EBL8
T11 sequence (Q5EBL8 42-139, limits assumed, looked up): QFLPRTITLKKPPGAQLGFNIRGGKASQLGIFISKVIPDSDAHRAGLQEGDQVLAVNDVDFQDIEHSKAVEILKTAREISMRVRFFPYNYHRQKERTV

T12: PDZD2_5, O15018
T12 sequence (O15018 2617-2716, limits assumed, looked up): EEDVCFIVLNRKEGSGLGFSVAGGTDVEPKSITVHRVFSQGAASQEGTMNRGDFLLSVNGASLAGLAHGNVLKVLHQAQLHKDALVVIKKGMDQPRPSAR


How the values were obtained:
Experiment in all cases: holdup assay
Parameters in all cases: key: below the threshold = too weak to quantify, mostly under pKd 3.1 to 4
Conditions in all cases: plain residues with an end cap or a label only (N-terminal biotin on a linker: ttds)
PDZD4, Q76G19 = molecular target: T1, PDZD4, Q76G19
CNKSR1, Q969H4 = molecular target: T2, CNKSR1, Q969H4
MPDZ_6, O75970 = molecular target: T3, MPDZ_6, O75970
PDZRN3_2, Q9UPQ7 = molecular target: T4, PDZRN3_2, Q9UPQ7
SCRIB_4, Q14160 = molecular target: SCRIB_4, Q14160
SCRIB_4, Q14160, sequence (Q14160 1095-1204): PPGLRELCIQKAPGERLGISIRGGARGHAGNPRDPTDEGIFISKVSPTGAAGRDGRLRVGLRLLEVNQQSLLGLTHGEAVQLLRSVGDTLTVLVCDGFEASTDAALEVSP

INTU, Q9ULD6 = molecular target: T5, INTU, Q9ULD6
SHANK3, Q9BYB0 = molecular target: T6, SHANK3, Q9BYB0
USH1C_3, Q9Y6N9 = molecular target: T7, USH1C_3, Q9Y6N9
Q5TCQ9 = molecular target: Q5TCQ9
NHERF2_1, Q15599 = molecular target: NHERF2_1, Q15599
NHERF2_1, Q15599, sequence (Q15599 9-91): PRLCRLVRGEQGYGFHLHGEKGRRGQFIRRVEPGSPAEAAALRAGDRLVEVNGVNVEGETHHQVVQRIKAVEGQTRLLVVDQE

TJP3_1, O95049 = molecular target: T8, TJP3_1, O95049
O43166 = molecular target: O43166
Q9H190 = molecular target: Q9H190
DLG5_2, Q8TDM6 = molecular target: DLG5_2, Q8TDM6
DLG5_2, Q8TDM6, sequence (Q8TDM6 714-800): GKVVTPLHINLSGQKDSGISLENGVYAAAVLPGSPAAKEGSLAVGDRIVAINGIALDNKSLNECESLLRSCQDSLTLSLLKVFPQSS

NHERF1_2, O14745 = molecular target: T9, NHERF1_2, O14745
Q96JY6 = molecular target: Q96JY6
MAGI3_6, Q5TCQ9 = molecular target: MAGI3_6, Q5TCQ9
MAGI3_6, Q5TCQ9, sequence (Q5TCQ9 1014-1103): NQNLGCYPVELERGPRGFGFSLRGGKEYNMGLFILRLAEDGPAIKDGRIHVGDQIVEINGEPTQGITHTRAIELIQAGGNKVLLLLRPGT

Q12923 = molecular target: Q12923
TJP3_2, O95049 = molecular target: T10, TJP3_2, O95049
RIMS1, Q86UR5 = molecular target: RIMS1, Q86UR5
RIMS1, Q86UR5, sequence (Q86UR5 584-692): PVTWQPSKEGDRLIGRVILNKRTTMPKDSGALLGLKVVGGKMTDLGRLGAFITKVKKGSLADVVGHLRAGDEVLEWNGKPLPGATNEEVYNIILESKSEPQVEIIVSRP

PDZD11, Q5EBL8 = molecular target: T11, PDZD11, Q5EBL8
Q70Z35 = molecular target: Q70Z35
NHERF4_3, Q86UT5 = molecular target: NHERF4_3, Q86UT5
NHERF4_3, Q86UT5, sequence (Q86UT5 325-412): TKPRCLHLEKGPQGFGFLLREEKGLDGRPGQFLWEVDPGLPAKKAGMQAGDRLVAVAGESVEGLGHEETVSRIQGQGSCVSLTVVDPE

LMO7, Q8WWI1 = molecular target: LMO7, Q8WWI1
LMO7, Q8WWI1, sequence (Q8WWI1 1037-1138): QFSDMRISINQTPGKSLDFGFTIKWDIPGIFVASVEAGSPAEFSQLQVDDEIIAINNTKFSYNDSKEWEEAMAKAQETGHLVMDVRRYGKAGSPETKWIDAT

PDZD2_5, O15018 = molecular target: T12, PDZD2_5, O15018
Q96SB3 = molecular target: Q96SB3

Row | Binder | pKd (PDZD4, Q76G19) | pKd (CNKSR1, Q969H4) | pKd (MPDZ_6, O75970) | pKd (PDZRN3_2, Q9UPQ7) | pKd (SCRIB_4, Q14160) | pKd (INTU, Q9ULD6) | pKd (SHANK3, Q9BYB0) | pKd (USH1C_3, Q9Y6N9) | pKd (Q5TCQ9) | pKd (NHERF2_1, Q15599) | pKd (TJP3_1, O95049) | pKd (DLG5_2, Q8TDM6) | pKd (NHERF1_2, O14745) | pKd (MAGI3_6, Q5TCQ9) | pKd (TJP3_2, O95049) | pKd (RIMS1, Q86UR5) | pKd (PDZD11, Q5EBL8) | pKd (NHERF4_3, Q86UT5) | pKd (LMO7, Q8WWI1) | pKd (PDZD2_5, O15018) | other results
1 | PSRDRKETSI [RALBP1, Q15311] | below the threshold | below the threshold | below the threshold | below the threshold | below the threshold | below the threshold | below the threshold | below the threshold | below the threshold | below the threshold | below the threshold | 4.26 | below the threshold | below the threshold | below the threshold | below the threshold | below the threshold | below the threshold | below the threshold | below the threshold | pKd (O43166): below the threshold; pKd (Q9H190): below the threshold; pKd (Q96JY6): below the threshold; pKd (Q12923): below the threshold; pKd (Q70Z35): below the threshold
2 | PPRQRSETQV [HPV82-E6, Q9IR59] | below the threshold | below the threshold | below the threshold | below the threshold | below the threshold | – | below the threshold | below the threshold | below the threshold | below the threshold | below the threshold | below the threshold | below the threshold | below the threshold | below the threshold | below the threshold | below the threshold | below the threshold | below the threshold | below the threshold | pKd (O43166): below the threshold; pKd (Q9H190): below the threshold; pKd (Q96JY6): below the threshold; pKd (Q12923): below the threshold; pKd (Q96SB3): below the threshold; pKd (Q70Z35): below the threshold
3 | KLVIKTETTV [RASSF6, Q6ZTQ3] | below the threshold | below the threshold | below the threshold | below the threshold | below the threshold | below the threshold | below the threshold | below the threshold | below the threshold | below the threshold | below the threshold | 4.33 | below the threshold | 4.15 | below the threshold | below the threshold | below the threshold | below the threshold | below the threshold | below the threshold | pKd (O43166): below the threshold; pKd (Q9H190): below the threshold; pKd (Q96JY6): below the threshold; pKd (Q12923): below the threshold; pKd (Q70Z35): below the threshold
4 | SSIDLWETAL [SLC15A5, A6NIM6] | below the threshold | below the threshold | below the threshold | below the threshold | 4.97 | below the threshold | 6.63 | below the threshold | below the threshold | 4.68 | below the threshold | below the threshold | below the threshold | 4.89 | below the threshold | below the threshold | below the threshold | below the threshold | below the threshold | below the threshold | pKd (O43166): below the threshold; pKd (Q9H190): below the threshold; pKd (Q96JY6): below the threshold; pKd (Q12923): below the threshold; pKd (Q96SB3): below the threshold; pKd (Q70Z35): below the threshold
5 | SGGKRKETLV [NET1, Q7Z628] | 3.72 | – | below the threshold | below the threshold | below the threshold | below the threshold | below the threshold | below the threshold | – | below the threshold | below the threshold | 4.58 | below the threshold | below the threshold | – | below the threshold | below the threshold | below the threshold | – | below the threshold | –
6 | SRSRRRETAL [HPV33-E6, P06427] | below the threshold | below the threshold | below the threshold | below the threshold | 4.24 | 4.54 | below the threshold | below the threshold | – | below the threshold | below the threshold | 4.78 | below the threshold | below the threshold | below the threshold | below the threshold | below the threshold | below the threshold | below the threshold | below the threshold | –
